# Where a chain is given by its changes, count along the chain named.
# T1: Ep-CAM (UniProt P16422 24-265, limits assumed)
# T1 construct: Amine coupled to a CM5 chip in the Biacore assays
# T1 sequence (looked up): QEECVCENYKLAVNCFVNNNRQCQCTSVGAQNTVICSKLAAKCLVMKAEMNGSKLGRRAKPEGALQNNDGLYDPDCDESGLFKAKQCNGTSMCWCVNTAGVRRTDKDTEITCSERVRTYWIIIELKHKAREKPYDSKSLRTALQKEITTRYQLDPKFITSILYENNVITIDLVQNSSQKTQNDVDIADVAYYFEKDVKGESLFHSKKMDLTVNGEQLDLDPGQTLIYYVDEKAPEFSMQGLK
# B1: ING-1 light chain H31K (Fab, V domains shown)
# VH: QIQLVQSGPELKKPGETVKISCKASGYTFTKYGMNWVKQAPGKGLKWMGWINTYTEEPTYGDDFKGRFAFSLETSASTANLQINNLKSEDTATYFCARFGSAVDYWGQGTSVTVSS
# VL: DIVMTQAAFSNPVTLGTSGSISCRSSKSLLKSNGITYLYWYLQKPGQSPQLLIYQMSNLASGVPDRFSSSGSGTDFTLRISRVEAEDVGVYYCAQNLELPRTFGGGTKLEMKR
# notes: Fab, periplasmic extract
# B2: ING-1 light chain L99S (Fab, V domains shown)
# VH: B1 VH
# VL: B1 VL with K31H, L99S
# notes: Fab, periplasmic extract
# B3: ING-1 light chain N33Y (Fab, V domains shown)
# VH: B1 VH
# VL: B1 VL with K31H, N33Y
# notes: Fab, periplasmic extract
# B4: ING-1 light chain P100K (Fab, V domains shown)
# VH: B1 VH
# VL: B1 VL with K31H, P100K
# notes: Fab, periplasmic extract
# B5: ING-1 light chain Q55D (Fab, V domains shown)
# VH: B1 VH
# VL: B1 VL with K31H, Q55D
# notes: Fab, periplasmic extract
# B6: ING-1 light chain L99E (Fab, V domains shown)
# VH: B1 VH
# VL: B1 VL with K31H, L99E
# notes: Fab, periplasmic extract
# B7: ING-1 light chain L29F (Fab, V domains shown)
# VH: B1 VH
# VL: B1 VL with L29F, K31H
# notes: Fab, periplasmic extract
# B8: ING-1 light chain H31N (Fab, V domains shown)
# VH: B1 VH
# VL: B1 VL with K31N
# notes: Fab, periplasmic extract
# B9: ING-1 light chain Q55E (Fab, V domains shown)
# VH: B1 VH
# VL: B1 VL with K31H, Q55E
# notes: Fab, periplasmic extract
# B10: ING-1 light chain L99N (Fab, V domains shown)
# VH: B1 VH
# VL: B1 VL with K31H, L99N
# notes: Fab, periplasmic extract
# B11: ING-1 light chain L29W (Fab, V domains shown)
# VH: B1 VH
# VL: B1 VL with L29W, K31H
# notes: Fab, periplasmic extract
# B12: ING-1 light chain H31R (Fab, V domains shown)
# VH: B1 VH
# VL: B1 VL with K31R
# notes: Fab, periplasmic extract
# B13: ING-1 light chain P100S (Fab, V domains shown)
# VH: B1 VH
# VL: B1 VL with K31H, P100S
# notes: Fab, periplasmic extract
# B14: ING-1 light chain K27N (Fab, V domains shown)
# VH: B1 VH
# VL: B1 VL with K27N, K31H
# notes: Fab, periplasmic extract
# B15: ING-1 light chain P100N (Fab, V domains shown)
# VH: B1 VH
# VL: B1 VL with K31H, P100N
# notes: Fab, periplasmic extract
# B16: ING-1 light chain L97R (Fab, V domains shown)
# VH: B1 VH
# VL: B1 VL with K31H, L97R
# notes: Fab, periplasmic extract
# B17: ING-1 light chain L99Q (Fab, V domains shown)
# VH: B1 VH
# VL: B1 VL with K31H, L99Q
# notes: Fab, periplasmic extract
# B18: ING-1 light chain L30E (Fab, V domains shown)
# VH: B1 VH
# VL: B1 VL with L30E, K31H
# notes: Fab, periplasmic extract
# B19: ING-1 light chain P100R (Fab, V domains shown)
# VH: B1 VH
# VL: B1 VL with K31H, P100R
# notes: Fab, periplasmic extract
# B20: ING-1 light chain P100Q (Fab, V domains shown)
# VH: B1 VH
# VL: B1 VL with K31H, P100Q
# notes: Fab, periplasmic extract
# B21: ING-1 light chain N33K (Fab, V domains shown)
# VH: B1 VH
# VL: B1 VL with K31H, N33K
# notes: Fab, periplasmic extract
# B22: ING-1 light chain L99K (Fab, V domains shown)
# VH: B1 VH
# VL: B1 VL with K31H, L99K
# notes: Fab, periplasmic extract
# B23: ING-1 light chain L99D (Fab, V domains shown)
# VH: B1 VH
# VL: B1 VL with K31H, L99D
# notes: Fab, periplasmic extract
# B24: ING-1 light chain L99R (Fab, V domains shown)
# VH: B1 VH
# VL: B1 VL with K31H, L99R
# notes: Fab, periplasmic extract
# B25: ING-1 light chain L97D (Fab, V domains shown)
# VH: B1 VH
# VL: B1 VL with K31H, L97D
# notes: Fab, periplasmic extract
# B26: ING-1 light chain K27W (Fab, V domains shown)
# VH: B1 VH
# VL: B1 VL with K27W, K31H
# notes: Fab, periplasmic extract
# B27: ING-1 light chain L29D (Fab, V domains shown)
# VH: B1 VH
# VL: B1 VL with L29D, K31H
# notes: Fab, periplasmic extract
# B28: ING-1 light chain P100H (Fab, V domains shown)
# VH: B1 VH
# VL: B1 VL with K31H, P100H
# notes: Fab, periplasmic extract
# B29: ING-1 light chain L29Y (Fab, V domains shown)
# VH: B1 VH
# VL: B1 VL with L29Y, K31H
# notes: Fab, periplasmic extract
# B30: ING-1 light chain L99Y (Fab, V domains shown)
# VH: B1 VH
# VL: B1 VL with K31H, L99Y
# notes: Fab, periplasmic extract
# B31: ING-1 light chain L30R (Fab, V domains shown)
# VH: B1 VH
# VL: B1 VL with L30R, K31H
# notes: Fab, periplasmic extract
# B32: ING-1 light chain L29Q (Fab, V domains shown)
# VH: B1 VH
# VL: B1 VL with L29Q, K31H
# notes: Fab, periplasmic extract
# B33: ING-1 light chain P100E (Fab, V domains shown)
# VH: B1 VH
# VL: B1 VL with K31H, P100E
# notes: Fab, periplasmic extract
# B34: ING-1 light chain I35N (Fab, V domains shown)
# VH: B1 VH
# VL: B1 VL with K31H, I35N
# notes: Fab, periplasmic extract
# B35: ING-1 light chain P100D (Fab, V domains shown)
# VH: B1 VH
# VL: B1 VL with K31H, P100D
# notes: Fab, periplasmic extract
# B36: ING-1 light chain L99H (Fab, V domains shown)
# VH: B1 VH
# VL: B1 VL with K31H, L99H
# notes: Fab, periplasmic extract
# B37: ING-1 light chain L30K (Fab, V domains shown)
# VH: B1 VH
# VL: B1 VL with L30K, K31H
# notes: Fab, periplasmic extract
# B38: ING-1 light chain K27S (Fab, V domains shown)
# VH: B1 VH
# VL: B1 VL with K27S, K31H
# notes: Fab, periplasmic extract
# B39: ING-1 light chain R101D (Fab, V domains shown)
# VH: B1 VH
# VL: B1 VL with K31H, R101D
# notes: Fab, periplasmic extract
# B40: ING-1 light chain K27E (Fab, V domains shown)
# VH: B1 VH
# VL: B1 VL with K27E, K31H
# notes: Fab, periplasmic extract
# B41: ING-1 light chain L30W (Fab, V domains shown)
# VH: B1 VH
# VL: B1 VL with L30W, K31H
# notes: Fab, periplasmic extract
# B42: ING-1 light chain L29E (Fab, V domains shown)
# VH: B1 VH
# VL: B1 VL with L29E, K31H
# notes: Fab, periplasmic extract
# B43: ING-1 light chain L29R (Fab, V domains shown)
# VH: B1 VH
# VL: B1 VL with L29R, K31H
# notes: Fab, periplasmic extract
# Target: T1, Ep-CAM
# Experiment: Biacore, Fab periplasmic extract
Binder,fold difference in affinity vs parental ING-1 [fold],binding result
B1,0.05,–
B2,0.04,–
B3,0.8,–
B4,0.03,–
B5,0.05,–
B6,0.01,–
B7,–,no binding
B8,0.5,–
B9,0.05,–
B10,2,–
B11,–,no binding
B12,0.06,–
B13,0.06,–
B14,–,no binding
B15,0.05,–
B16,–,no binding
B17,0.02,–
B18,–,no binding
B19,0.05,–
B20,0.04,–
B21,0.7,–
B22,0.02,–

Binder,fold difference in affinity vs parental ING-1 [fold],binding result
B23,0.02,–
B24,0.04,–
B25,–,no binding
B26,–,no binding
B27,–,no binding
B28,0.05,–
B29,–,no binding
B30,1,–
B31,–,no binding
B32,–,no binding
B33,0.06,–
B34,0.5,–
B35,0.02,–
B36,0.05,–
B37,–,no binding
B38,–,no binding
B39,–,no binding
B40,–,no binding
B41,–,no binding
B42,–,no binding
B43,–,no binding

# Reference: US20110118131A1 (published 2011)
